Experimental data as given in the DeepSol protein solubility set.

assay: soluble on expression in E. coli; label from the status in PepcDB or PDB records

Sequence | soluble on expression in E. coli
MFHCKGLYMSDQNDKLKNLKTSSMDRRLSIAKASLLAGTRWATASATSMFSSEAEKEKKRKKAMTEQANYLVSEIGKLKGSIVKIGQMMALYGEHFLPEEITQALNTLNNQTVALAWPAIKAHLQEQLGSKLDDLIIDHEPIGTASLAQVHRATRKSDGLELVLKIQYPGVAEAIDSDMSLFKNMLKLTRMVPQTREFDQWFDEVREMMHREVSYDIEAATTRRFAERLKTDPRYAVPQIIDAYCTTKILCMTFERGVPINSPVMLSLPQERRNKLGEASLEIAVREIFEWGEMQTDPNFGNYLVRLGNGTDIQDKIVLLDFGAIRQFDEHLLSVARNLIRAGYNHSNEEMVRAMTGYSFFDSIPESIKPDMAKVFLLATEAFSCPENNPDMPTGLMDEDNRYDWKKSQLHSRVMQQASKSMASRYFSVPPKEFMFISRKFIGAYTFMTVIEAKTNVRRMISHFVK | soluble
MSLHRFQYKAYRRSFAGTFANARESFAKREGLMIRLEDRDGRVGFGEVAPIVSFGSESFASAFSVAESLGEQVAFERVLPELAGYPCLRWACESALDMIAREGVWEELEKPWPICGLVADLGDLASVEEKLGMHYQCLKFKIGKKSLIEELKALDRVIELSEGKVQIRLDANGTLDMRTAIGWLERVAGLPVEFIEQPLPVGAEVEMRRLSADFPTLLALDESVDSVDDLKRWRDQQWPGLYVIKPSLSGSLLALGEELSGGAGDCVFSSSLETKIGESNAIGFAIRQSGHGRALGFGVERLFADRNVGLELGPFLQKGGLASSDDLESLWNLTEGHHHHHH | soluble
MVAFTVDQMRSLMDKVTNVRNMSVIAHVDHGKSTLTDSLVQRAGIISAAKAGEARFTDTRKDEQERGITIKSTAISLYSEMSDEDVKEIKQKTDGNSFLINLIDSPGHVDFSSEVTAALRVTDGALVVVDTIEGVCVQTETVLRQALGERIKPVVVINKVDRALLELQVSKEDLYQTFARTVESVNVIVSTYADEVLGDVQVYPARGTVAFGSGLHGWAFTIRQFATRYAKKFGVDKAKMMDRLWGDSFFNPKTKKWTNKDTDAEGKPLERAFNMFILDPIFRLFTAIMNFKKDEIPVLLEKLEIVLKGDEKDLEGKALLKVVMRKFLPAADALLEMIVLHLPSPVTAQAYRAEQLYEGPADDANCIAIKNCDPKADLMLYVSKMVPTSDKGRFYAFGRVFAGTVKSGQKVRIQGPNYVPGKKDDLFIKAIQRVVLMMGRFVEPIDDCPAGNIIGLVGIDQFLLKTGTLTTSETAHNMKVMKFSVSPVVQVAVEVKNANDLPKLVEGLKRLSKSDPCVLTYMSESGEHIVAGTGELHLEICLQDLEHDHAGVPLKISPPVVAYRETVESESSQTALSKSPNKHNRIYLKAEPIDEEVSLAIENGIINPRDDFKARARIMADDYGWDVTDARKIWCFGPDGNGPNLVIDQTKAVQYLHEIKDSVVAAFQWATKEGPIFGEEMRSVRVNILDVTLHADAIHRGGGQIIPTMRRATYAGFLLADPKIQEPVFLVEIQCPEQAVGGIYSVLNKKRGQVVSEEQRPGTPLFTVKAYLPVNESFGFTGELRQATGGQAFPQMVFDHWSTLGSDPLDPTSKAGEIVLAARKRHGMKEEVPGWQEYYDKL | soluble
MFTKRHRITLLFNANKAYDRQVVEGVGEYLQASQSEWDIFIEEDFRARIDKIKDWLGDGVIADFDDKQIEQALADVDVPIVGVGGSYHLAESYPPVHYIATDNYALVESAFLHLKEKGVNRFAFYGLPESSGKRWATEREYAFRQLVAEEKYRGVVYQGLETAPENWQHAQNRLADWLQTLPPQTGIIAVTDARARHILQVCEHLHIPVPEKLCVIGIDNEELTRYLSRVALSSVAQGARQMGYQAAKLLHRLLDKEEMPLQRILVPPVRVIERRSTDYRSLTDPAVIQAMHYIRNHACKGIKVDQVLDAVGISRSNLEKRFKEEVGETIHAMIHAEKLEKARSLLISTTLSINEISQMCGYPSLQYFYSVFKKAYDTTPKEYRDVNSEVML | soluble
MSAGTRTQQQPPPKQRHPFQPACRLWCPLSPPSVLPFCASTCRPPPQDRQVRQCGGRIALRVAISPLSSSHSVLDGISHLASRMSDHADIDEAARKRLRAEAPFVSPLPLPPPAAPLLPCDASHNGESAEAAGHILVASAPPHKEDSVASTLHTSAKEARFEGRCMPPSFHSLLGEYEVPEEAKDVEDLVGGHEDFSDLPEARREALLQSVRTLVKKAAGASSAEQLEHLRVKGSRLHGFKDTARKSELTAAYRQLVREGAIAENAVVEALLIRKKGKSHSGVLVVTVFMGPGEFSCPKDCHYCPNQPGIARSYLLKEPGVLRGFRNGWDPISQFYDRASALENNGHVVDKIELIILGGTFSFYPQRYAEEFMTASFYAANTYYDSAPLRPMRSLAEELTLNEGARCRIIGITAETRPDYISARELRRFRSLGITRVQLGIQHLDDDILNLINRDCPTAKTVVAIQRLLDAGFKVDAHWMPDLPGSSFEKDMELFETLFSAENESFQVDQWKVYPTATVPFTKISEWYAQGQYKPYAELDNGAYMVKLLVYIMEHCPYRIRLNRIIRDIPTTYIMGGEKRCNLRQVIEAEMRARHIRCKDIRERECKGNPVDRANTHLFTDEFRASEGTEFYLSVENKDRTQLYGHLRLRLRDDASREESNILPVLRGCALVRELHTYGKLIAVSQQNTGRETQHVGVGTQLMREAERIAKERGYHRMAVIAGVGVRRYYAKLGYRLEDTYMVKELDEQASAITEDQVVQDDDNENSAYSSFLSTIKSFFGFHKNTP | not soluble
VSVGTHPTFENSPSGTVLTSPPDGSAVDRATDAARRVVDALLRTDRGNANLERVAEELNSIAGHLEEHAPAVAERLIDMWNGEGVTRHDPVTGPENALAPPVVLEGLSDGSVRGTVTLTIPYQGPPGHVHGGVSALLLDHVLGVANAWGGKAGMTAQLSTRYHRPTPLFEPLTLTGKLMSVDGRKITTAGDIRTADGQVCVSVEGLFVDKTVPRPR | soluble
MCSTEKLSEADANLPYFHGALMNIDADQLLVNEGDFMVTMKKQLDINKLQLFLAVRLKKGIRRYEIKRTSKTAKIGGKTSQNIVKLINMLKADPIEIRGEKVVLKRAIPKGKFQLMHKDVIFQKKIGAGAYGTVYRGKLVKTDEVIAVKKLDPEGADEDGLAEMMKEARVMQLYDHPNIVKFHGFILDDLPYLLVLEYCNGGAVEDRLRDKGEKIKVPTRVKYTYMAACGMDYLHKKNCIHRDIASRNCLIHKGVVKMADFGMCRAQSVYKVDLKKPCNIRWLAPEVWDNGETRFNTDVYAFGIMMWEFFETPFKSPYVEMKAAQVKRKTRAGYRLPPPPSMPSRMVEIMSECWQVDAEKRPTAEELKEKLEEFKKKTENSITTSAPPTSVEKSKLSVSSEPTTKSVDPNKSRL | not soluble
MSSTKQKALKKIAKCLELGNSANVNEAAQAIKMAHRLMLKYGLEKDDIEFIKMGKTQSIHLLPANVGSNILKIIRGINTRFGVEAVLLNHKGLKKVEFIGSADRAIFAAFAFDIVYREMNEQTGQFKNSFAGTGTGQLEVTKRVNSFLAGWIEGALEKLPVIAPDEDSANKINDYIDKEFKNIDRETFKQQLKEAMANITADYEKGLKKGRTISVNRPVAGAQAPKLLK | not soluble
MGSDKIHHHHHHSCDGMDATYKEFIEEGPIVYIGKVDSLKAYAGRNRAMLEWQKLLDPRAKTAKIFWENRTRSTELQLTDKAGLTQVIVKDLAEGSYVFEVCTYDTHGNSSIMSEVPCTVYGDVYEKLLFNTKVKTAVLKNDVLTITFAASLEPTFFGSEITYTSIDGGDKTVILKAPETQIKIDDFAGDRIIYRSVYLPEETAIDYFYSESDEFEIK | not soluble
MASLEVSRSPRRSRRELEVRSPRQNKYSVLLPTYNERENLPLIVWLLVKSFSESGINYEIIIIDDGSPDGTRDVAEQLEKIYGSDRILLRPREKKLGLGTAYIHGMKHATGNYIIIMDADLSHHPKFIPEFIRKQKEGNFDIVSGTRYKGNGGVYGWDLKRKIISRGANFLTQILLRPGASDLTGSFRLYRKEVLEKLIEKCVSKGYVFQMEMIVRARQLNYTIGEVPISFVDRVYGESKLGGNEIVSFLKGLLTLFATT | not soluble
MGSDKIHHHHHHMSFLIGPFLKSFIDNVIKDTVIPVKGSVVYCGLFGYAEHSGIYIGDNKIVHLDGSGIIEVVSPQQFIERLSGLNPAMSIYVSCNGSSATGTNTIAKRAKKMVGKSRKYHVILDNCHQFTSGCITGNFDNADNFLWMLKSTAGNKLSTNKWRVWERKYSS | not soluble
MGSDKIHHHHHHMRVILAPMQGVLDPFVRELLTEVNDYDLCITEFVRVVDQLLPEKVFYRLCPELKNQGFTSSGTPVRVQLLGQHPKCLAENAIRAIDLGSHGIDLNCGCPSKTVNGSNGGAALLKQPELIYRATQALRRAVPSEFPVSVKVRLGWDDISQAFEIADAVEQGGATEITVHGRTKADGYRADRINWKKISEVRERLSIPVIANGEIWHWQDGQDCLSQTGCQDLMVGRGALNIPNLSHVLKSNAEKMPWYEIQKILQKYANVENEYDSGFYHVARIKQWLRYLNKEYNEANQVFDKIKTCQTAEDLKLRLNEK | not soluble
MRKGLLAALLLLSACQVLEGSGYRVTEVQFLFPEATERWTYFYGEPRVVELDGRPLRLEAPQGENLWAFPGALWVEGSPVLRATYPSRPPVAEAVRGVSGSLLQVRAQAPLLATWLYDGVGWVRLTGSLREGEERTLVQPANYQTPRLFPLTEEESAVVLREVLARRGGKPVVVFELREPPLPPLRLSPAPDAYRIARLQVQYGLRLEPVMPPAPIFRVLGQGTQAAYQEEAPLALLANDPTSFNRLWALAVGNQLPRPAAPAVDFRNRSVAAFFWGLKPTGGYGLKVVGVTYAGERARVVLSLGAPKPGAITTQALTSPYVVLELQKVRRVVFADTSGKVLAEARD | soluble
SSRIGEIKEETTSHLRSCEYKGRPPKAGAEPASEREVS | soluble
MEAPLYPDLPPDLCAPRGGQPAFWVGPRHLAGDDGRLYDVVADALAGLGWTSLTIVRGRHEPDEEPEDRQVLRSTVLHISPDALRWAQWCAADEPFHLGGLPIAWQISVRAEVSSPLAQWSAYFTRDVPGEAVVDFLVALDASNQPAVSLAGAELVLDAVAAHGWFRDIDQPEAVATDPAFTSHISLGEVPPLIQDGDLRVLSAEDDETGPDGWQAWAEPVLGAPLLWVASFAASVPHDLVAAFAASLSSTAPVLRRVLPEATHERLLRAPAILEHHHHHH | not soluble
MGSDKIHHHHHHMSTLPHLGFQVYQPCAPLLPYVRCYWQITRIAAPETRSTEFMHPEGGTGIIFNFGAPMHFDGWQHRAQCLVTGPTKQSTRLELSGRVDALGIRFWPGAGRAFLKTPLSEMLGQTLTPADLSLALLSDELAERLAVLPTAPERIALLETRLLHYLTAHGSQTQTTEPSMKYALNWIAEQKGQGEIRNLLTEIDISQRQLERLFQQNLGMSPKNYSILQRTGFARELLKSDTDSPLTDIGYQAGFYDQAHFIREFKQVIGITPGQFRSKALLRR | not soluble
GSGTGAGEGHEGYVTRKHEWDSTTKKASNRSWDKVYMAAKAGRISFYKDQKGYKSNPELTFRGEPSYDLQNAAIEIASDYTKKKHVLRVKLANGALFLLQAHDDTEMSQWVTSLKAQSDSTA | soluble
MGSDKIHHHHHHSDVVDLEPVDKFSELTAYGTEERCELAVVGAYDAAQCGMYVDPNDFGWARGYPFGAASILQGEMRGEDMNLTAQFYDYTYSATYNLTTANNVAMWETSFEAINRYNTVYAGIEGAVAAGVITEEKGNQYKGECLFLRALTYHNLMIHYALPYNVEGNNNYGMPIYTKAVNDPSQLAEQQSIGRSTVKDTYDQILSDLNNAESMLPDIIDADKIGRASKGAAIALKTRVYLHMRDWNNVVTEAKKLEGGRFILETNPATPFVSYKDNQESIFSIPNDSQDNGSVNGAMSAMMSAREGGRAMCPTSPTLYNSKFWKGDDKRRNLVLYRASDDYYFCDKYQNPQTREEYAPILRYAEVLLNEAEAAARAGDKTLALEKLNQVRDRSLADPATQTYKASDFANTKALVEAILWERRIEFQGEGRRWEDIHRLAADDLLPSGGIPAKIEYNNVKNQGAFVVGGEVKAEWFGNSKQFIPYTDKRFIWPIPLNDILRNPTLAAQQNAGW | not soluble
